# Substitutions are numbered along the chain they refer to. Names may count otherwise.
# T1: cynomolgus monkey FcγRIIa1 extracellular domain, C-terminal His-tag (cynomolgus monkey)
# T1 construct: also called cyno FcγRIIa1; FcgRIIa1; not shown: His-tag added to the C-terminus
# T1 chain: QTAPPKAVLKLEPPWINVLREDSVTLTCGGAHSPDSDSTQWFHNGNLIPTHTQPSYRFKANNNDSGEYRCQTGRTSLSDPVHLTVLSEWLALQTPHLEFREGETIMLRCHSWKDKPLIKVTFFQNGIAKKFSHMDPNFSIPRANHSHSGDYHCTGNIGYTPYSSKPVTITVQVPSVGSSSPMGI
# T2: cynomolgus monkey FcγRIIa2 extracellular domain, C-terminal His-tag (cynomolgus monkey)
# T2 construct: also called cyno FcγRIIa2; FcgRIIa2; not shown: His-tag added to the C-terminus
# T2 chain: T1 chain with P95T, T121A, I127K, A128S, K130N, D135N, R142Q
# T3: cynomolgus monkey FcγRIIa3 extracellular domain, C-terminal His-tag (cynomolgus monkey)
# T3 construct: also called cyno FcγRIIa3; FcgRIIa3; not shown: His-tag added to the C-terminus
# T3 chain: T1 chain with P95T, T121A, A128S, H133P, D135N
# T4: cynomolgus monkey FcγRIIb extracellular domain, C-terminal His-tag (cynomolgus monkey)
# T4 construct: also called cyno FcγRIIb; cynoFcγRIIb; not shown: His-tag added to the C-terminus
# T4 chain: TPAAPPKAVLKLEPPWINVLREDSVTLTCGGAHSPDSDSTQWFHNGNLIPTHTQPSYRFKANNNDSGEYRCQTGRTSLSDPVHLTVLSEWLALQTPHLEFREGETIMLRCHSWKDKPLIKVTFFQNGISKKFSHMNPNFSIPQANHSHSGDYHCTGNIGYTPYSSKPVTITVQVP
# T5: human FcγRIIaH extracellular domain, C-terminal His-tag (human, UniProt P12318 34-217)
# T5 construct: also called human FcγRIIa (type H); FcgRIIaH; not shown: His-tag added to the C-terminus
# T5 sequence: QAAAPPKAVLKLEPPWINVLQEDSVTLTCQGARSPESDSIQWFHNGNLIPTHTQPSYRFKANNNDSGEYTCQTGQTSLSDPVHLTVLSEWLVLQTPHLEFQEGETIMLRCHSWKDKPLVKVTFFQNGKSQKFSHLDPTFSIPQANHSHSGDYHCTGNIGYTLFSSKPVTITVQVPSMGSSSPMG
# T6: human FcγRIIaR extracellular domain, C-terminal His-tag (human, UniProt P12318 34-217)
# T6 construct: also called human FcγRIIa (type R); FcgRIIaR; not shown: His-tag added to the C-terminus
# T6 chain: T5 sequence with H134R
# B1: MS1032LO06-SG1 (M103205H795-SG1/M103202L889-SK1) (antibody, human IgG1, kappa)
# heavy: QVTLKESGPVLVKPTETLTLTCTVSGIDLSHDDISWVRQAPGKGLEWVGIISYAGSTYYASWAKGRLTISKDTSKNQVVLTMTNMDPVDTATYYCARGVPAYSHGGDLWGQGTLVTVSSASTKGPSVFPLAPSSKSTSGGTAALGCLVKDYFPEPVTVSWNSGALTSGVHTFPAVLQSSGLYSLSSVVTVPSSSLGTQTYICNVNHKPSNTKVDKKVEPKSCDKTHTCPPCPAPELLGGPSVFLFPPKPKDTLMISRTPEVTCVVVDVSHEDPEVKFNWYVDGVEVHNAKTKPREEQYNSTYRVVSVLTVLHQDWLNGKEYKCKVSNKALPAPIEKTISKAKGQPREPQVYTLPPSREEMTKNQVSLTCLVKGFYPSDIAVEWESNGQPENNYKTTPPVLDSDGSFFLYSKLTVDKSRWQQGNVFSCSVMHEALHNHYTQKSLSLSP
# light: DIVMTQSPATLSLSPGERATLSCTSSQSVYHANWLSWFQQKPGQPPKLLIYWASTLAYGVPSRFSGSGSGTDFTLTISSLQPEDAATYYCAGGYGGGRYAFGQGTKVEIKRTVAAPSVFIFPPSDEQLKSGTASVVCLLNNFYPREAKVQWKVDNALQSGNSQESVTEQDSKDSTYSLSSTLTLSKADYEKHKVYACEVTHQGLSSPVTKSFNRGEC
# notes: Anti-latent myostatin antibody
# B2: MS_M103205H795-SG1/M103202L889-SK1 (antibody, human IgG1, kappa)
# heavy: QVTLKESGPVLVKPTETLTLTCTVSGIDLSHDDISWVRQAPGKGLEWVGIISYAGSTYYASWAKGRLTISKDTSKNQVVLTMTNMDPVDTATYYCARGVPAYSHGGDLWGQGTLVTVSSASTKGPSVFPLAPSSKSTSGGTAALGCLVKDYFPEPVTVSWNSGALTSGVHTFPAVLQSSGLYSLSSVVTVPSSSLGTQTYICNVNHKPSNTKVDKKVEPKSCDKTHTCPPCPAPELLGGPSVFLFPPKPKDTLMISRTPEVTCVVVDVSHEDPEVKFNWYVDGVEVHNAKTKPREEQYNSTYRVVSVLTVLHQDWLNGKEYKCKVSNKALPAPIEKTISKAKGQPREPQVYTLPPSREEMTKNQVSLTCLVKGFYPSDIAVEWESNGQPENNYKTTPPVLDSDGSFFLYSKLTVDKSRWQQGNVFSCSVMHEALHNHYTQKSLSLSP
# light: B1 light
# notes: Parent of the Fc variants; also called MS1032LO06-SG1
# B3: M103205H795-MY101/M103202L889-SK1 (antibody, human IgG1, kappa)
# heavy: QVTLKESGPVLVKPTETLTLTCTVSGIDLSHDDISWVRQAPGKGLEWVGIISYAGSTYYASWAKGRLTISKDTSKNQVVLTMTNMDPVDTATYYCARGVPAYSHGGDLWGQGTLVTVSSASTKGPSVFPLAPSSKSTSGGTAALGCLVKDYFPEPVTVSWNSGALTSGVHTFPAVLQSSGLYSLSSVVTVPSSSLGTQTYICNVNHKPSNTKVDKKVEPKSCDKTHTCPPCPAPELLNGPSVFLFPPKPKDTLMISRTPEVTCVVVDVSEEDPEVKFNWYVDGVEVHNAKTKPREEQYNSTYRVVSVLTVLHQDWLNGKEYKCKVSNKALPKPIEKTISKAKGQPREPQVYTLPPSREEMTKNQVSLTCLVKGFYPSDIAVEWESNGQPENNYKTTPMVLDSDGSFFLYSKLTVDKSRWQQGNVFSCSVMHEALHNHYTQKSLSLSP
# light: B1 light
# notes: also called MS1032LO06-MY101
# B4: M103205H795-MY050/M103202L889-SK1 (antibody, human IgG1, kappa)
# heavy: B3 heavy with S269A, K332A, M398P
# light: B1 light
# notes: Substitutions introduced into M103205H795-SG1; expressed with M103202L889-SK1 as light chain
# B5: M103205H795-MY197/M103202L889-SK1 (antibody, human IgG1, kappa)
# heavy: B3 heavy with E270D
# light: B1 light
# notes: as for B4
# B6: MS1032LO06-MY201 (M103205H795-MY201/M103202L889-SK1) (antibody, human IgG1, kappa)
# heavy: B3 heavy with E270D, M398P
# light: B1 light
# notes: CH MY201 = SG1 with G236N/H268D/A330K (EU numbering); also called MS103205H795-MY201
# B7: M103205H795-MY048/M103202L889-SK1 (antibody, human IgG1, kappa)
# heavy: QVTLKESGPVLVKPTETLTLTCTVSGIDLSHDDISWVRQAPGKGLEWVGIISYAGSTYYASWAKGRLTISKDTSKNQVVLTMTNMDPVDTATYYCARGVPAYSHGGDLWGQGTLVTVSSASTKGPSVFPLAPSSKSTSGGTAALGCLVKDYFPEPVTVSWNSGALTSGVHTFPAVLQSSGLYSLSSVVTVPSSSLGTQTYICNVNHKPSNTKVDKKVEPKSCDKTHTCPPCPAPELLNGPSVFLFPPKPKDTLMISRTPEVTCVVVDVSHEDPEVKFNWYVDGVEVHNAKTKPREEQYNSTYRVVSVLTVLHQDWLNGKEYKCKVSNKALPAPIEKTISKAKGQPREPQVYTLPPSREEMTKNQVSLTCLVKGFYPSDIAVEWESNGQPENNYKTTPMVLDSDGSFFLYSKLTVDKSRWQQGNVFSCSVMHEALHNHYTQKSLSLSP
# light: B1 light
# notes: as for B4
# B8: M103205H795-MY047/M103202L889-SK1 (antibody, human IgG1, kappa)
# heavy: not shown
# light: B1 light
# notes: as for B4
# B9: M103205H795-MY147/M103202L889-SK1 (antibody, human IgG1, kappa)
# heavy: B3 heavy with L237W, K332A
# light: B1 light
# notes: as for B4
# B10: MS1032LO06-MY351 (M103205H795-MY351/M103202L889-SK1) (antibody, human IgG1, kappa)
# heavy: B3 heavy with E270D, Q313R, M398P, D415K
# light: B1 light
# notes: CH MY351 = SG1 with G236N/H268D/Q311R/A330K/D413K (EU numbering); also called MS103205H795-MY351
# B11: M103205H795-MY115/M103202L889-SK1 (antibody, human IgG1, kappa)
# heavy: B3 heavy with S269A, K332A
# light: B1 light
# notes: as for B4
# B12: M103205H795-MY051/M103202L889-SK1 (antibody, human IgG1, kappa)
# heavy: B3 heavy with P273G, K332A, M398P
# light: B1 light
# notes: as for B4
# B13: M103205H795-MY052/M103202L889-SK1 (antibody, human IgG1, kappa)
# heavy: B3 heavy with K332A
# light: B1 light
# notes: as for B4
# B14: M103205H795-MY141/M103202L889-SK1 (antibody, human IgG1, kappa)
# heavy: B3 heavy with S269A, E270H, K332A
# light: B1 light
# notes: as for B4
# B15: M103205H795-MY105/M103202L889-SK1 (antibody, human IgG1, kappa)
# heavy: B3 heavy with S241V, K332A
# light: B1 light
# notes: as for B4
# B16: M103205H795-MY049/M103202L889-SK1 (antibody, human IgG1, kappa)
# heavy: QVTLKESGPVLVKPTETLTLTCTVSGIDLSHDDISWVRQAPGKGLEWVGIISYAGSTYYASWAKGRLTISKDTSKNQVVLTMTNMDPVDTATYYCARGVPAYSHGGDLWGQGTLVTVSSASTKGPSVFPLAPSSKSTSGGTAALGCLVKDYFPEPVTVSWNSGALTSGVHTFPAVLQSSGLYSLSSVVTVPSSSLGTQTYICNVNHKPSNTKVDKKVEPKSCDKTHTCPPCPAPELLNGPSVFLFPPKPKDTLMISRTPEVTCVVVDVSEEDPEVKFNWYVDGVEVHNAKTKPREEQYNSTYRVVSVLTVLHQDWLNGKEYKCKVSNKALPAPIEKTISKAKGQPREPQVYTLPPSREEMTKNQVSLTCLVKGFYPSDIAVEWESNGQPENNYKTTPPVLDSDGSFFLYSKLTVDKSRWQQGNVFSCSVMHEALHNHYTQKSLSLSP
# light: B1 light
# notes: as for B4
# B17: M103205H795-MY117/M103202L889-SK1 (antibody, human IgG1, kappa)
# heavy: B3 heavy with L236W, S269A, K332A
# light: B1 light
# notes: as for B4
# B18: M103205H795-MY001/M103202L889-SK1 (antibody, human IgG1, kappa)
# heavy: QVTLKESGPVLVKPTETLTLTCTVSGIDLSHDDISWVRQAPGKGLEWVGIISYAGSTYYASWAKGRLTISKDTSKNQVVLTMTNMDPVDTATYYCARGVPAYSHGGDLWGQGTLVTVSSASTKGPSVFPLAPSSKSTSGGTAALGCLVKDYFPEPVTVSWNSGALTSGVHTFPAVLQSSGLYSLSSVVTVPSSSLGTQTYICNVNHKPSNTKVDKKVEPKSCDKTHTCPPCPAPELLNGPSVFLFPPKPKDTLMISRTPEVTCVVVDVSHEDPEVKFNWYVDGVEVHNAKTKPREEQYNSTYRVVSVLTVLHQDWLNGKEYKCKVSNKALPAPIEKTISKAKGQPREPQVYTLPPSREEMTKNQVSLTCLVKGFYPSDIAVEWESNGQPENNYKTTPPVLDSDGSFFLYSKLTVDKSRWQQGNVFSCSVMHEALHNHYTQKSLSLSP
# light: B1 light
# notes: as for B4
# Legend:
# [1] = biological target: T1, cynomolgus monkey FcγRIIa1 …; assay: SPR; KD of SG1 divided by KD of variant;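 note: relative to parent M103205H795-SG1 carrying the SG1 human heavy chain constant region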
# Description: (§1) The kinetic analysis of interactions between these antibodies and FcγR was carried out using BIACORE® T200 or BIACORE® 4000 (GE Healthcare). HBS-EP+ (GE Healthcare) was used as the running buffer, and the measurement temperature was set to 25° C. A chip produced by immobilizing Protein A. Protein A/G or mouse anti-human IgG kappa light chain (BD Biosciences) onto a Series S Sensor Chip CM4 or CM5 (GE Healthcare) by the amine-coupling method was used. […] After the measurement, the antibody captured on the chip was washed off by allowing reaction with 10 mM glycine-HCl, pH1.5 and 25 mM NaOH so that the chip was regenerated and used repeatedly. The sensorgrams obtained as measurement results were analyzed by the 1:1 Langmuir binding model using the BIACORE® Evaluation Software to calculate the binding rate constant ka (L/mol/s) and dissociation rate constant kd (l/s), and the dissociation constant KD (mol/L) was calculated from these values. […] Regarding such interactions, KD values were calculated using the following 1:1 binding model described in BIACORE® T100 Software Handbook BR1006-48 Edition AE.
# [2] = biological target: T2, cynomolgus monkey FcγRIIa2 …; assay: SPR; KD of SG1 divided by KD of variant;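 note: relative to parent M103205H795-SG1 carrying the SG1 human heavy chain constant region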
# Description: as §1
# [3] = biological target: T3, cynomolgus monkey FcγRIIa3 …; assay: SPR; KD of SG1 divided by KD of variant;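 note: relative to parent M103205H795-SG1 carrying the SG1 human heavy chain constant region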
# Description: as §1
# [4] = biological target: T4, cynomolgus monkey FcγRIIb extracellular …; assay: SPR; KD of SG1 divided by KD of variant;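 note: relative to parent M103205H795-SG1 carrying the SG1 human heavy chain constant region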
# Description: as §1
# [5] = biological target: T7, cynomolgus monkey FcγRIIIaS extracellular domain, C-terminal His-tag (cynomolgus monkey, UniProt A3RFZ7 21-206 (rhesus entry)); assay: SPR; KD of SG1 divided by KD of variant
# T7 construct: also called cyno FcγRIIIaS; FcgRIIIaS; not shown: His-tag added to the C-terminus
# Description: as §1
# [6] = biological target: T5, human FcγRIIaH extracellular domain, …; assay: SPR; KD of SG1 divided by KD of variant
# Description: as §1
# [7] = biological target: T6, human FcγRIIaR extracellular domain, …; assay: SPR; KD of SG1 divided by KD of variant
# Description: as §1
# [8] = biological target: T8, human FcγRIIIaV extracellular domain, C-terminal His-tag (human, UniProt P08637 17-208); assay: SPR; KD of SG1 divided by KD of variant
# T8 construct: also called FcgRIIIaV; not shown: His-tag added to the C-terminus
# Description: as §1
# T8 sequence (P08637 17-208 F176V): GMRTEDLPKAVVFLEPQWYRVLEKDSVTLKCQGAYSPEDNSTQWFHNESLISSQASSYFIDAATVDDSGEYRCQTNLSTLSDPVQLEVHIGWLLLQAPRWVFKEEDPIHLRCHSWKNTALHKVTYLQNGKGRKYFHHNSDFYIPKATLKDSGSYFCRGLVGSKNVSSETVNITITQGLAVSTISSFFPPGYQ
# [9] = biological target: T9, human FcγRIIIaV extracellular domain, C-terminal His-tag (human, UniProt P08637 17-208); assay: SPR (Biacore), antibody captured, FcgR analyte
# T9 construct: also called human FcgRIIIaV; FcgRIIIaV
# T9 sequence (P08637 17-208 F176V): as above
# T7 sequence (A3RFZ7 21-206): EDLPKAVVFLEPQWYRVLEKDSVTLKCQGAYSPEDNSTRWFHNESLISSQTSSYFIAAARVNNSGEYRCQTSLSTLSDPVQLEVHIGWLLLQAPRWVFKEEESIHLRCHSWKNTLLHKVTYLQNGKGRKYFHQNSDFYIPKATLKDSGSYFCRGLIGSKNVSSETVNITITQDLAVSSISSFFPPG
binder,measurement,setting,value
B1,KD fold (SG1 = 1),[1],1 fold
same,KD fold (SG1 = 1),[2],1 fold
same,KD fold (SG1 = 1),[3],1 fold
same,KD fold (SG1 = 1),[4],1 fold
same,KD fold (SG1 = 1),[5],1 fold
same,KD fold (SG1 = 1),[6],1 fold
same,KD fold (SG1 = 1),[7],1 fold
same,KD fold (SG1 = 1),[8],1 fold
B2,Kd,[9],0.81 µM
B3,Kd,[9],11 µM
B4,Kd,[9],3.3 µM
B5,Kd,[9],10 µM
B6,KD fold (SG1 = 1),[1],3.2 fold
same,KD fold (SG1 = 1),[2],4 fold
same,KD fold (SG1 = 1),[3],4.9 fold
same,KD fold (SG1 = 1),[4],5.8 fold
same,KD fold (SG1 = 1),[5],0.08 fold
same,KD fold (SG1 = 1),[6],0.9 fold
same,KD fold (SG1 = 1),[7],0.8 fold
same,KD fold (SG1 = 1),[8],0.02 fold
B7,Kd,[9],12 µM
B8,Kd,[9],7.7 µM
B9,Kd,[9],11 µM
B10,KD fold (SG1 = 1),[1],3 fold
same,KD fold (SG1 = 1),[2],3.6 fold
same,KD fold (SG1 = 1),[3],4 fold
same,KD fold (SG1 = 1),[4],5 fold
same,KD fold (SG1 = 1),[5],0.07 fold
same,KD fold (SG1 = 1),[6],0.7 fold
same,KD fold (SG1 = 1),[7],0.6 fold
same,KD fold (SG1 = 1),[8],0.08 fold
B11,Kd,[9],8.6 µM
B12,Kd,[9],74 µM
B13,Kd,[9],4.6 µM
B14,Kd,[9],12 µM
B15,Kd,[9],5.9 µM
B16,Kd,[9],7.8 µM
B17,Kd,[9],7.3 µM
B18,Kd,[9],18 µM
